According to patent publication US7935343B2:
Each block holds one binder with its values, some of them ahead of it.

What was measured:
[1] = biological target: T1, murine IL-13 (murine)
T1 sequence: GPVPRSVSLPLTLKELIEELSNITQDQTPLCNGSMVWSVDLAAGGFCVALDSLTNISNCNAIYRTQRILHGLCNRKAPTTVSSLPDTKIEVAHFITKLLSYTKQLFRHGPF

[2] = biological target: T1, murine IL-13 (murine); remark: listed apart in the source
[3] = biological target: human IL-13 (human)
human IL-13 (human), sequence (chain, as listed by the source): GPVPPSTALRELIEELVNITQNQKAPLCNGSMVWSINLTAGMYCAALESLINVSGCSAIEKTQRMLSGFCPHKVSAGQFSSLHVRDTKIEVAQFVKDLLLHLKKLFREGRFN

IC50, TF-1 cell proliferation [1]: 185 nM
B1: BAK209B11 scFv (scFv, V domains shown)
VH: VQLQESGGGGLVQPGGSLRLSCAASGFTFSSYGMSWVRQAPGKGLEWVSSISASGDSTFYADSVKGRFTISRDNNKNMVFLQVNSLRADDTAVYFCAKDWSQWLVGDAFDVWGRGTTVTVSS
VL: DIQLTQSPSTLSASVGDRVTITCRASQSVSLWVAWYQQRPGKAPKLLIYDGSTLQSGVPARFSGSGSGTEFTLTISSLQPDDFATYYCQQYKTFSTFGQGTKVEIKR

IC50, B9 cell proliferation [2]: 0.776 nM
B2: BAK209B11 human IgG4 (antibody, V domains shown)
VH: B1 VH
VL: B1 VL

IC50, TF-1 proliferation (Mean TF1) [3]: 44 nM
B3: BAK278D6 scFv (scFv, V domains shown)
VH: EVQLVQSGAEVKKPGASVKVSCKASGYTFRNYGLSWVRQAPGQGLEWMGWISANNGDTNYGQEFQGRITMTTETSTNTAHMELRSLRSDDTAVYYCVRDSSSNWARWFFDLWGKGTMVTVSS
VL: SYVLTQPPSVSVAPGQTARIPCGGNNIGSKLVHWYQQKPGQAPVLVVYDDGDRPSGIPERFSGSNSGNTATLTISRIDAGDEADYYCQVWDTGSDPVVFGGGTKLTVL
